Results as given in US20240076361A1.

Molecular target: Tau from human Alzheimer's Disease brain lysate (Braak stage VI) (human), P10636
Assay: ELISA on Tau captured from AD brain lysate, curve without blocking peptide
Settings: remark: other sources report otherwise

Tau from human Alzheimer's Disease brain lysate (Braak stage VI) (human), P10636, sequence (P10636 other isoform, or with tags, fused parts or gaps limits assumed): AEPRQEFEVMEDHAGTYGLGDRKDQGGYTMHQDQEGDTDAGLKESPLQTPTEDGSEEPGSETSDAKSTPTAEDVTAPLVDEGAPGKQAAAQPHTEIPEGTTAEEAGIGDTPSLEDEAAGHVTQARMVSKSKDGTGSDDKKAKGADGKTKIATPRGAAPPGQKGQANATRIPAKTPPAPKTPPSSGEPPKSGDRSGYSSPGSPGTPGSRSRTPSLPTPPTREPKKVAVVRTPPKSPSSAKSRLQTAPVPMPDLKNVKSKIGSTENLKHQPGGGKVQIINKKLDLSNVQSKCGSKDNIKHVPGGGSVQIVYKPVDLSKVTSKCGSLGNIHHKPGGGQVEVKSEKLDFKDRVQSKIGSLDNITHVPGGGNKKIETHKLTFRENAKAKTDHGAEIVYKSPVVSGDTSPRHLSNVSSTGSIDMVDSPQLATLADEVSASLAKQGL

EC50 (read off the curve): 20 pM
B1: PT3 comparator antibody (antibody)
chain 1: EVKLVESGGDLVKPGGSLKLSCAASGFTFSSYAMSWVRQNPEKRLEWVASISKGGNTYYPNSVKGRFTISRDNARNILYLQMSSLRSEDTALYYCARGWGDYGWFAYWGQVTLVTVSA
chain 2: DIKMTQSPSSMYASLGERVTITCKASQDINRYLNWFQQKPGKSPKTLIYRANRLLDGVPSRFSGSGSGQDYSLTISSLDYEDMGIYYCLQYDEFPLTFGDGTKLELK
modifications: here or on the partner: native phosphorylation and other post-translational modifications, not defined
